Measurements reported in article PMC4072508, “Genome-Wide Prediction and Validation of Peptides That Bind Human Prosurvival Bcl-2 Proteins” (PLoS Computational Biology, 2014).

T1: Mcl-1, Q07820
T1 chain: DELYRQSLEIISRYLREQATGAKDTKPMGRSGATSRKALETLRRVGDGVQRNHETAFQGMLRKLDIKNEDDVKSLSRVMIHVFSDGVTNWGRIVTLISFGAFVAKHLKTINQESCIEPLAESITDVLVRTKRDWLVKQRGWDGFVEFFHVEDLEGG

B1: CPS1 (peptide)
chain: RRTSINVVRHLGIVGECNIQFALHPT
B2: ARHGEF7 (peptide)
chain: CANHPSAVNVLTEHSEELGEFMETKG
B3: DIRC2 (peptide)
chain: IVGGCVVGIAMARFLDFIRGMLKLIL
B4: NCOR2 (peptide)
chain: QQMHHNAATAMAQRADMLRGLSPRES
B5: CPS1 (peptide)
chain: HGTSSRIGSSDKSVGEVMAIGRTFEE
B6: PKP2 (peptide)
chain: DKATENCVCILHNLSYQLEAELPEKY
B7: C12orf43 (peptide)
chain: REAAVSASDILQESAIHSPGTVEKEA
B8: PKD2L1 (peptide)
chain: NKTMTQLSSTDARCAKDILGFAVMFF
B9: TTC3 (peptide)
chain: RFVVIDNCIALKKVASRLKKKRKKKN
B10: HIRA (peptide)
chain: GLTWDPVGKYDASQADDRSLKVWRTL
B11: ATP2B1 (peptide)
chain: ALKKADVGFADGIAGTDVAKEASDII
B12: HUWE1 (peptide)
chain: GVMTQEVGQLLQDMGDDVYQQYRSLT
B13: RINT1 (peptide)
chain: LNAVNYISTVLADWADNVFFLQLQQA
B14: CIITA (peptide)
chain: PPDAHVLGKALEAAGQDFSLDLRSTG
B15: TEP1 (peptide)
chain: AALFLHAGCQLLTAGEDGKVQVWSGS
B16: BNC1 (peptide)
chain: SEDHFRAAYLLKDVAKEAYQDVAFTQ
B17: ADCY8 (peptide)
chain: RLAHEHHCLRDKILGDCYYCVSGLPE
B18: SPAG9 (peptide)
chain: HPRKESQVRQLAWVLDGVWVSIRLDS
B19: KCNK4 (peptide)
chain: CVSDQELGLLIKEVADALGGGADPET
B20: TIGD7 (peptide)
chain: SAGVPVRGVELQAAAERFARCFGRTD
B21: CDC42BPG (peptide)
chain: ELQAPATVQSDGLLGDRLCVGAAGGF
B22: LIPE (peptide)
chain: CALLGSTGERICLALDSAGGNLCFTV
B23: RRM1 (peptide)
chain: NKRHRPIGIGVQGLADAFILMRYPFE
B24: CPS1 (peptide)
chain: LRCEMASTGEVACFGEGIHTAFLKAM
B25: PSMB1 (peptide)
chain: SPYVFNGGTILAIALEDFAIVASDTR
B26: KPNB1 (peptide)
chain: DHTDGVVACADGLIGDLCTAFGKDVL
B27: CDC42BPG (peptide)
chain: ELQAPATVQSLGLLLDRLCVGAAGGF
B28: LIPE (peptide)
chain: CALLGSTGERICLAGDSAGGNLCFTV
B29: KDM1B (peptide)
chain: TLLTPGYSVIIEKLAEGLDIQLKSPV
B30: BIRC6 (peptide)
chain: CGDLASLSIDIWTLGEEVDGRRLVVA
B31: CPS1 (peptide)
chain: RRTSINVVRHDGIVGECNIQFALHPT
B32: CPS1 (peptide)
chain: RRTSINVVRHLGIVLECNIQFALHPT
B33: CRTC1 (peptide)
chain: PSLSKELTSSDAGVGDVSFDSDSQFP
B34: KIF13A (peptide)
chain: RIEMWISILELNELGEYAAVELHQAK
B35: PCM1 (peptide)
chain: DSLAKFAGRKLKDCLEDLLVEISEVL
B36: SEH1L (peptide)
chain: RVSWNITGTVLASSLDDGCVRLWKAN
B37: GRIN3B (peptide)
chain: KCCYGYCIDLLERLAEDTPFDFELYL
B38: TIGD7 (peptide)
chain: SAGVPVRGVEDQAAAERFARCFGRTD
B39: BMF (peptide)
chain: HQAEVQIARKLQCIADQFHRLHVQQH
B40: STRN (peptide)
chain: LGLGELAGLTVANELDSLTYDIANNK
B41: MAP3K1 (peptide)
chain: SSAPAAAAGLLREAGSGGRERADWRR
B42: MAPK8IP3 (peptide)
chain: HPRRESQVRQDAWIGDGVWVSIRLDS
B43: IQCB1 (peptide)
chain: SLIEYKAAVTLQRAALKFLAKYRKKK
B44: BIRC6 (peptide)
chain: CGDLASLSIDIWTLLEEVDGRRLVVA

Biological target: T1, Mcl-1, Q07820
Assay: peptide SPOT array, c-Myc-tagged receptor at 1 uM or 100 nM, anti-c-Myc-Cy3

SPOT signal as a fraction of Bim BH3's signal on the same receptor and array | Binder
0.02 | B1
0.01 | B2
0.18 | B3
0.01 | B4
0.02 | B5
0.01 | B6
0.01 | B7
0.02 | B8
0.17 | B9
0.23 | B10
0.01 | B11
0.45 | B12
0.03 | B13
0.01 | B14
0.02 | B15
0.02 | B16
0.01 | B17
0.02 | B18
0.01 | B19
0.04 | B20
0.01 | B21
0.01 | B22

SPOT signal as a fraction of Bim BH3's signal on the same receptor and array | Binder
0.04 | B23
0.03 | B24
0.01 | B25
0.01 | B26
0.01 | B27
0.01 | B28
0.02 | B29
0.02 | B30
0.03 | B31
0.1 | B32
0.01 | B33
0.02 | B34
0.02 | B35
0.08 | B36
0.02 | B37
0.02 | B38
0.48 | B39
0.01 | B40
0.07 | B41
0.02 | B42
0.24 | B43
0.03 | B44

Biological target: Bcl-xL, Q07817
Sequence (Q07817 1-209): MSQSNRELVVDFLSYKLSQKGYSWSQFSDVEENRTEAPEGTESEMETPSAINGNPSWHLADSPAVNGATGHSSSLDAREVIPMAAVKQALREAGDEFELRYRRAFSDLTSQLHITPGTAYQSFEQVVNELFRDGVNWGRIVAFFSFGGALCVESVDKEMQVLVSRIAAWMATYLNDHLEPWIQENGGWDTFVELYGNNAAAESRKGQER
Assay: as above

SPOT signal as a fraction of Bim BH3's signal on the same receptor and array | Binder
0.03 | B1
0.29 | B3
0.06 | B4
0.02 | B5
0.03 | B8
0.17 | B10
0.01 | B11
0.02 | B13
0.02 | B14
0.02 | B15
0.02 | B17
0.02 | B18
0.12 | B20
0.01 | B21
0.01 | B22
0.04 | B23

SPOT signal as a fraction of Bim BH3's signal on the same receptor and array | Binder
0.03 | B24
0.02 | B25
0.02 | B26
0.01 | B27
0.01 | B28
0.02 | B30
0.03 | B31
0.14 | B32
0.01 | B33
0.02 | B34
0.02 | B35
0.18 | B36
0.02 | B38
0.02 | B40
0.02 | B42
0.03 | B44
